From US20250163119A1, “COMPOUNDS FOR THE TREATMENT OF DIABETES OR OBESITY” (Eli Lilly and Company, priority 2023, published 2025)
*1 amine or outer side, *2 acyl side, *3 side chain or, on linkers, in order; H or OH if unused. Where no end group is shown, it is not given here. Side-chain parts run from the residue outwards. [ ]: non-standard residue; d: D form. The star is where a group is joined. C20 diacid = O=C(O)CCCCCCCCCCCCCCCCCCC(=O)*; γGlu = O=C(O)[C@H](CCC(=O)[*:2])N[*:1]; εLys = N[C@@H](CCCCN[*:1])C(=O)[*:2]; NMeI = CC[C@H](C)[C@H](NC)C(=O)O; αMeL = CC(C)C[C@](C)(N)C(=O)O; AEEA = NCCOCCOCC(=O)O; Aib = CC(C)(N)C(=O)O

T1: human corticotropin-releasing hormone receptor 1 (CRHR1) (human, UniProt P34998 24-415)
T1 sequence (looked up): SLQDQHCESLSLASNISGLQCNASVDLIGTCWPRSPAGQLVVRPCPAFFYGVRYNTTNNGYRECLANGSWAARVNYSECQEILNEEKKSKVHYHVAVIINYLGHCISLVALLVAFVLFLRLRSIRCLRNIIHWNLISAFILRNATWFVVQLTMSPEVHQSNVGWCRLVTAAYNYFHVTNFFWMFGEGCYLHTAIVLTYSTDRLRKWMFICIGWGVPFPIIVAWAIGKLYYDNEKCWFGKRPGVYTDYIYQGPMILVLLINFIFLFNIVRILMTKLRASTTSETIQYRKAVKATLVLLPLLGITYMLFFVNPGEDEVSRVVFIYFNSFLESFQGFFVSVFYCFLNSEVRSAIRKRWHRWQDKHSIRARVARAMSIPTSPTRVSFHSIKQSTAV

B1: polypeptide comprising SEQ ID NO:48 (peptide)
peptide: Ac-PPPIVTS[αMeL]DVPT[Aib][αMeL]LQKLLEQERAEKARQQAK([γGlu-AEEA-εLys-C20 diacid])EAAEILAQV-NH2
B2: polypeptide comprising SEQ ID NO:47 (peptide)
peptide: Ac-PPPIVTS[αMeL]D[dV]PT[Aib][αMeL]LQKLLEQERAEKARQQAK([γGlu-AEEA-εLys-C20 diacid])EAAEILAQV-NH2
B3: polypeptide comprising SEQ ID NO:46 (peptide)
peptide: Ac-PPPIVTS[αMeL]D[dV]PT[Aib][αMeL]LQK[Aib]LEQERAEKARQQAK([γGlu-AEEA-εLys-C20 diacid])ENTEILAQV-NH2
B4: polypeptide comprising SEQ ID NO:49 (peptide)
peptide: [NMeI]VTSLDVPIG[αMeL]LQKLIEQEKQEKEKQQAKENTEILAQV-NH2
modifications: not fully specified (residue 29)

Target: T1, human corticotropin-releasing hormone …
Assay: cell-based or functional assay

hCRHR1 cAMP EC50 [µM]	Binder
> 10	B1
2.3	B2
> 10	B3
> 10	B4

Target: rat CRHR2 (endogenous on A7r5 cells) (rat, UniProt P47866 20-411)
Sequence (P47866 20-411): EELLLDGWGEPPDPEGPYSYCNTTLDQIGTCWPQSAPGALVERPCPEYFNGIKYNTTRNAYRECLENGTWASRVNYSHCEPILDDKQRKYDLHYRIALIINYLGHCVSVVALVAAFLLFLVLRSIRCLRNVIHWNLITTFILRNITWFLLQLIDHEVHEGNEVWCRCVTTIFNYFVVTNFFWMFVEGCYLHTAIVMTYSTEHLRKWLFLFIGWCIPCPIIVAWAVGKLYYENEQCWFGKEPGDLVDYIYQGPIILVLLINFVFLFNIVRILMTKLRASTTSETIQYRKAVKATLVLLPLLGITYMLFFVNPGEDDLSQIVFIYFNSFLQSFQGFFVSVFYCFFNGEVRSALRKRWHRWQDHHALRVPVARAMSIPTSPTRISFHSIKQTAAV
Assay: cell-based or functional assay

A7r5 cAMP EC50 [pM]	Binder
1160	B1
1060	B2
313	B3
137	B4

Target: T1, human corticotropin-releasing hormone …
Assay: cell-based or functional assay
Remark: another data set of the same source

Y79 cAMP EC50 [µM]	Binder
4.5	B1
0.72	B2
4	B3
> 10	B4
